In publication PMC5828407 (Veterinary Research, 2018):

T1: APN∆5 (332–963 AA) (porcine, UniProt P15145 332-963)
T1 sequence: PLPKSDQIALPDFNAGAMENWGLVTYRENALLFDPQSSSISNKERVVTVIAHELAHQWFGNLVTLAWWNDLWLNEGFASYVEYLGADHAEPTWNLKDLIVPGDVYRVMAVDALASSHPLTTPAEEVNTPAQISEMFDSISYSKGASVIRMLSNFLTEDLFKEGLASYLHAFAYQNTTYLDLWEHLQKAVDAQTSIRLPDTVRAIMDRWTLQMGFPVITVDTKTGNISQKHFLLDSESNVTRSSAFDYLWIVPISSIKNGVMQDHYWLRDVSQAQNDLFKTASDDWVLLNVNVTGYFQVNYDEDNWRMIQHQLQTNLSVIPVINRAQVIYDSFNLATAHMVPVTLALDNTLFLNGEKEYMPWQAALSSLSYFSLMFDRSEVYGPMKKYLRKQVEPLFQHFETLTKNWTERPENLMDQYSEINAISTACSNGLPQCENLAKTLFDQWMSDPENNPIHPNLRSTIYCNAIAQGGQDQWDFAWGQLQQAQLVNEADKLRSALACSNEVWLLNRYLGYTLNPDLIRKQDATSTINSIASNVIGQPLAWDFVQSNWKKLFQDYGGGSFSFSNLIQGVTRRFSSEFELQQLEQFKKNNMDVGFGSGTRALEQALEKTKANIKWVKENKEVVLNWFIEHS

T2: APN∆1 (401–963 AA) (porcine, UniProt P15145 401-963)
T2 sequence: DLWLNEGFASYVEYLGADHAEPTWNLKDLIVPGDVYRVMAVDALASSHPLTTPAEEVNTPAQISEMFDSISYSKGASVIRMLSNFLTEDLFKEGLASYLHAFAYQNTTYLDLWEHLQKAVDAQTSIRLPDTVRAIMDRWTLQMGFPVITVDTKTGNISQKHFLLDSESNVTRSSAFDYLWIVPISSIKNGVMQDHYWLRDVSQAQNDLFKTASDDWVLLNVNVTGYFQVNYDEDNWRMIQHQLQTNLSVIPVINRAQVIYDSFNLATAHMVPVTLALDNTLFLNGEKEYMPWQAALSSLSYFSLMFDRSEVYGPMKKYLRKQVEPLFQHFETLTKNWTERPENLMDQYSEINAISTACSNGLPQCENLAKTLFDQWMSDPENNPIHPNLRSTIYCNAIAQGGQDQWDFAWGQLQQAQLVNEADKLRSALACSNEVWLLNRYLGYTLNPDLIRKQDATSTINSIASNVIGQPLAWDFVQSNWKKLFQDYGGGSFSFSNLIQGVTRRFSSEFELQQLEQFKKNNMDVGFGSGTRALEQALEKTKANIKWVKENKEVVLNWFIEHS

B1: porcine aminopeptidase N (APN), His-tagged whole protein (receptor)
chain: MAKGFYISKALGILGILLGVAAVATIIALSVVYAQEKNKNAEHVPQAPTSPTITTTAAITLDQSKPWNRYRLPTTLLPDSYNVTLRPYLTPNADGLYIFKGKSIVRLLCQEPTDVIIIHSKKLNYTTQGHMVVLRGVGDSQVPEIDRTELVELTEYLVVHLKGSLQPGHMYEMESEFQGELADDLAGFYRSEYMEGNVKKVLATTQMQSTDARKSFPCFDEPAMKATFNITLIHPNNLTALSNMPPKGSSTPLAEDPNWSVTEFETTPVMSTYLLAYIVSEFQSVNETAQNGVLIRIWARPNAIAEGHGMYALNVTGPILNFFANHYNTSYPLPKSDQIALPDFNAGAMENWGLVTYRENALLFDPQSSSISNKERVVTVIAHELAHQWFGNLVTLAWWNDLWLNEGFASYVEYLGADHAEPTWNLKDLIVPGDVYRVMAVDALASSHPLTTPAEEVNTPAQISEMFDSISYSKGASVIRMLSNFLTEDLFKEGLASYLHAFAYQNTTYLDLWEHLQKAVDAQTSIRLPDTVRAIMDRWTLQMGFPVITVDTKTGNISQKHFLLDSESNVTRSSAFDYLWIVPISSIKNGVMQDHYWLRDVSQAQNDLFKTASDDWVLLNVNVTGYFQVNYDEDNWRMIQHQLQTNLSVIPVINRAQVIYDSFNLATAHMVPVTLALDNTLFLNGEKEYMPWQAALSSLSYFSLMFDRSEVYGPMKKYLRKQVEPLFQHFETLTKNWTERPENLMDQYSEINAISTACSNGLPQCENLAKTLFDQWMSDPENNPIHPNLRSTIYCNAIAQGGQDQWDFAWGQLQQAQLVNEADKLRSALACSNEVWLLNRYLGYTLNPDLIRKQDATSTINSIASNVIGQPLAWDFVQSNWKKLFQDYGGGSFSFSNLIQGVTRRFSSEFELQQLEQFKKNNMDVGFGSGTRALEQALEKTKANIKWVKENKEVVLNWFIEHS
B2: GST-tagged FaeG fusion protein of F4ad (natural protein)
chain: WMTGDFNGSVDIGGSITADDYRQKWEWKVGTGLNGFGNVLNDLTNGGTKLTITVTGNKPILLGRTKEAFATPVTSGVDGIPHIAFTDYEGASVELRNPDGETEKGLAYFVLPMKNAEGTKVGSVKVNASYAGALGRGGVTSADGELMSLFAEGSHAIFYGGLPTNVKNSELKGGSAAAARTELFGSLSKNDILGQIQRVNANITSLVNVPGSFNENMAYTDGSVVSVAYALGIANGQTIEATFNQAVTTSTQWSAPLNVAITYY
B3: GST-tagged FaeG fusion protein of F4ab (natural protein)
chain: WMTGDFNGSVDIGGSITADDYRQKWEWKVGTGLNGFGNVLNDLTNGGTKLTITVTGNKPILLGRTKEAFATPVSGGVDGIPQIAFTDYEGASVKLRNTDGETNKGLAYFVLPMKNAEGTKVGSVKVNASYAGVFGKGGVTSADGELFSLFADGLRAIFYGGLTTTVSGAALTSGSAAAARTELFGSLSRNDILGQIQRVNANITSLVDVAGSYREDMEYTDGTVVSAAYALGIANGQTIEATFNQAVTTSTQWSAPLNVAITYY

Key:
Conditions in all cases: both partners purified
[1] = target: GST-tagged FaeG fusion protein of F4ac (Escherichia coli, UniProt P14190 22-283); experiment: ELISA; APN protein coated on plates, incubated with FaeG peptides, fusion FaeG proteins or F4 fimbriae; absorbance at 450 nm
[2] = target: T1, APN∆5 (332–963 AA); experiment: ELISA; indirect ELISA: APN and its five truncated proteins coated at 100 μg/mL in carbonate-bicarbonate buffer pH 9.6, incubated with 100 μg/mL FaeG fusion protein, detected with anti-F4 monoclonal antibody
[3] = target: T2, APN∆1 (401–963 AA); experiment: as above
[4] = target: B1; experiment: ELISA; APN protein coated on plates, incubated with FaeG peptides, fusion FaeG proteins or F4 fimbriae; absorbance at 450 nm

| Binder | binding result [1] | binding result [2] | binding result [3] | binding result [4] |
| --- | --- | --- | --- | --- |
| B1 | binds | – | – | – |
| B2 | – | binds | binds | binds |
| B3 | – | binds | binds | binds |
